Assay results from doi:10.1101/2025.01.30.635804, “Emergence of specific binding and catalysis from a designed generalist binding protein” (bioRxiv, 2025).

Assay: Kinetic parameters of reported proteins catalyzing the Kemp elimination (literature)
Assay type: biochemical
Settings: literature kcat/KM (M-1s-1) divided by total number of amino acids
From the text: Extended Data Table 4 çKinetic parameters of reported proteins catalyzing the Kemp elimination of 5-nitrobenzisoxazole with base-mediated mechanism.
Protein Description kcat/KM, kcat, KM, Amino Ref
AlleyCat Single mutation of 5.8 ND ND 0.08 64
Lysozyme Double mutation of 1.8 ND ND 0.01 138 […]

B1: tKSI: Natural enzyme; ref 68 (protein, UniProt P00947 1-125, looked up)
Steroid Delta-isomerase: MNTPEHMTAVVQRYVAALNAGDLDGIVALFADDATVEDPVGSEPRSGTAAIREFYANSLKLPLAVELTQEVRAVANEAAFAFTVSFEYQGRKTVVAPIDHFRFNGAGKVVSMRALFGEKNIHAGA
Amino acid efficiency: 0.02

B2: D38N tKSI: Single mutation of tKSI; ref 68 (protein, UniProt P00947 1-125, looked up, variant D38N)
Steroid Delta-isomerase: MNTPEHMTAVVQRYVAALNAGDLDGIVALFADDATVENPVGSEPRSGTAAIREFYANSLKLPLAVELTQEVRAVANEAAFAFTVSFEYQGRKTVVAPIDHFRFNGAGKVVSMRALFGEKNIHAGA
Amino acid efficiency: 140
